# Experimental data reported in patent US20080201790.
# B1: MEKK1 (protein encoded by p-MEKK1, transiently expressed in COS cells) (protein)
# chain: MVTAVPAVFSKLVTMLNASGSTHFTRMRRRLMAIADEVEIAEVIQLGVEDTVDGHQDSLQAVAPTSCLENSSLEHTVHREKTGKGLSATRLSASSEDISDRLAGVSVGLPSSTTTEQPKPAVQTKGRPHSQCLNSSPLSHAQLMFPAPSAPCSSAPSVPDISKHRPQAFVPCKIPSASPQTQRKFSLQFQRNCSEHRDSDQLSPVFTQSRPPPSSNIHRPKPSRPVPGSTSKLGDATKSSMTLDLGSASRCDDSFGGGGNSGNAVIPSDETVFTPVEDKCRLDVNTELNSSIEDLLEASMPSSDTTVTFKSEVAVLSPEKAENDDTYKDDVNHNQKCKEKMEAEEEEALAIAMAMSASQDALPIVPQLQVENGEDIIIIQQDTPETLPGHTKAKQPYREDAEWLKGQQIGLGAFSSCYQAQDVGTGTLMAVKQVTYVRNTSSEQEEVVEALREEIRMMGHLNHPNIIRMLGATCEKSNYNLFIEWMAGGSVAHLLSKYGAFKESVVINYTEQLLRGLSYLHENQIIHRDVKGANLLIDSTGQRLRIADFGAAARLASKGTGAGEFQGQLLGTIAFMAPEVLRGQQYGRSCDVWSVGCAIIEMACAKPPWNAEKHSNHLALIFKIASATTAPSIPSHLSPGLRDVAVRCLELQPQDRPPSRELLKHPVFRTTW
# B2: HA epitope-tagged MEKK3 (expressed in HEK293 cells) (protein)
# chain: MGYPYDVPDYASDEQEALDSIMKDLVALQMSRRTRLSGYETMKNKDTGHPNRQSDVRIKFEHNGERRIIAFSRPVRYEDVEHKVTTVFGQPLDLHYMNNELSILLKNQDDLDKAIDILDRSSSMKSLRILLLSQDRNHTSSSPHSGVSRQVRIKPSQSAGDINTIYQAPEPRSRHLSVSSQNPGRSSPPPGYVPERQQHIARQGSYTSINSEGEFIPETSEQCMLDPLSSAENSLSGSCQSLDRSADSPSFRKSQMSRARSFPDNRKECSDRETQLYDKGVKGGTYPRRYHVSVHHKDYNDGRRTFPRIRRHQGNLFTLVPSSRSLSTNGENMGVAVQYLDPRGRLRSADSENALTVQERNVPTKSPSAPINWRRGKLLGQGAFGRVYLCYDVDTGRELASKQVQFDPDSPETSKEVSALECEIQLLKNLQHERIVQYYGCLRDRAEKILTIFMEYMPGGSVKDQLKAYGALTESVTRKYTRQILEGMSYLHSNMIVHRDIKGANILRDSAGNVKLGDFGASKRLQTICMSGTGIRSVTGTPYWMSPEVISGEGYGRKADVWSLGCTVVEMLTEKPPWAEYEAMAAIFKIATQPTNPQLPSHISEHGRDFLRRIFVEARQRPSAEELLTHHFAQLVY
# B3: HA epitope-tagged MEKK2 (expressed in HEK293 cells) (protein)
# chain: MGYPYDVPDYASDDQQALNSIMQDLAVLHKPVGQHYLYKKPGKQNLHHQKNRMMFESNLNIEEEKRILQVTRPVKLEDLRSKSKIAFGQSMDLHYTNNELVIPLTTQDDLDKAVELLDRSIHMKSLKILLVVNGSTQATNLEPSPSPEDLNNTPLGAERKKRLSVVGPPNRDRSSPPPGYIPDILHQIARNGSFTSINSEGEFIPESMDQMLDPLSLSSPENSGSGSCPSLDSPLDGESYPKSRMPRAQSYPDNHQEFTDYDNPIFEKFGKGGTYPRRYHVSYHHQEYNDGRKTFPRARRTQGTSFRSPVSFSPTDHSLSTSSGSSVFTPEYDDSRIRRRGSDIDNPTLTVTDISPPSRSPRAPTNWRLGKLLGQGAFGRVYLCYDVDTGRELAVKQVQFNPESPETSKEVNALECEIQLLKNLLHERIVQYYGCLRDPQEKTLSIFMELSPGGSIKDQLKAYGALTENVTRKYTRQILEGVHYLHSNMIVHRDIKGANILRDSTGNIKLGDFGASKRLQTICLSGTGMKSVTGTPYWMSPEVISGEGYGRKADIWSVACTVVEMLTEKPPWAEFEAMAAIFKIATQPTNPKLPPHVSDYTRDFLKRIFVEAKLRPSAEELLRHMFVHYH
# Assays:
# [1] = biological target: recombinant catalytically inactive MEK-1 (Lys343 to Met, polyhistidine fusion), P31938
# [2] = biological target: recombinant JNKK (substrate in Example 2)
# [3] = biological target: recombinant MEK1 (substrate in Example 2)
Protein,"phosphorylation of catalytically inactive MEK-1 by immunoprecipitated MEKK (γ-32P-ATP, SDS-PAGE, autoradiography) [1]",in vitro kinase assay of 12CA5 immunoprecipitates with a recombinant substrate and γ-32P-ATP [2],in vitro kinase assay of 12CA5 immunoprecipitates with a recombinant substrate and γ-32P-ATP [3]
B1,MEKK phosphorylated catalytically inactive MEK-1,,
B2,,it did not show measurable kinase activity toward MEK 1 or JNKK,it did not show measurable kinase activity toward MEK 1 or JNKK
B3,,MEKK 2 clearly phosphorylates both MEK 1 and JNKK,MEKK 2 clearly phosphorylates both MEK 1 and JNKK
